# Measurements from the supplement of paper PMC10567573.
# B1: NET1 (parent)
# chain: RVRPLARVTSLANLISPVRNGAVR
# Variants of: B1
# Assay: protein stability index of a GFP-peptide fusion (GPS, HEK-293T) (PSI 1-6); higher = more stable
# Conditions: c terminus: a fixed tail appended
# 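Further: lentivirally expressed fusions sorted by FACS into six bins by GFP to DsRed ratio, PSI derived from sequencing read proportions per bin multiplied by bin number.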
row,Variant,protein stability index
1,RVRPLNRVTSLANLISPVRNGAVR,2.93
2,RVRPLPRVTSLANLISPVRNGAVR,3.04
3,RVRPLVRVTSLANLISPVRNGAVR,3.36
4,RVRPLCRVTSLANLISPVRNGAVR,2.98
5,RVRPLWRVTSLANLISPVRNGAVR,2.35
6,RVRPLHRVTSLANLISPVRNGAVR,2.69
7,RVRPLLRVTSLANLISPVRNGAVR,2.72
8,RVRPLYRVTSLANLISPVRNGAVR,2.02
9,RVRPLRRVTSLANLISPVRNGAVR,3.33
10,RVRPLFRVTSLANLISPVRNGAVR,2.71
11,RVRPLMRVTSLANLISPVRNGAVR,3.18
12,RVRPLDRVTSLANLISPVRNGAVR,2.95
13,RVRPLKRVTSLANLISPVRNGAVR,2.74
14,RVRPLERVTSLANLISPVRNGAVR,3.06
15,RVRPLIRVTSLANLISPVRNGAVR,2.76
16,RVRPLGRVTSLANLISPVRNGAVR,3.98
17,RVRPLQRVTSLANLISPVRNGAVR,3.17
18,RVRPLSRVTSLANLISPVRNGAVR,2.53
19,RVRPLTRVTSLANLISPVRNGAVR,2.9
20,RVRPLARVTSCANLISPVRNGAVR,2.56
21,RVRPLARVTSNANLISPVRNGAVR,3.77
22,RVRPLARVTSHANLISPVRNGAVR,2.94
23,RVRPLARVTSEANLISPVRNGAVR,3.56
24,RVRPLARVTSQANLISPVRNGAVR,4.39

row,Variant,protein stability index
1,RVRPLARVTSPANLISPVRNGAVR,3.96
2,RVRPLARVTSFANLISPVRNGAVR,3.19
3,RVRPLARVTSAANLISPVRNGAVR,3.98
4,RVRPLARVTSKANLISPVRNGAVR,3.21
5,RVRPLARVTSVANLISPVRNGAVR,3.08
6,RVRPLARVTSDANLISPVRNGAVR,3.24
7,RVRPLARVTSWANLISPVRNGAVR,1.98
8,RVRPLARVTSTANLISPVRNGAVR,3.56
9,RVRPLARVTSRANLISPVRNGAVR,3.29
10,RVRPLARVTSSANLISPVRNGAVR,3.14
11,RVRPLARVTSGANLISPVRNGAVR,3.25
12,RVRPLARVTSMANLISPVRNGAVR,3.45
13,RVRPLARVTSIANLISPVRNGAVR,2.83
14,RVRPLARVTSYANLISPVRNGAVR,2.43
15,RVRPLARYTSLANLISPVRNGAVR,2.38
16,RVRPLARTTSLANLISPVRNGAVR,3.76
17,RVRPLARLTSLANLISPVRNGAVR,2.65
18,RVRPLARNTSLANLISPVRNGAVR,2.87
19,RVRPLARWTSLANLISPVRNGAVR,3.05
20,RVRPLARCTSLANLISPVRNGAVR,2.93
21,RVRPLARSTSLANLISPVRNGAVR,3.99
22,RVRPLARATSLANLISPVRNGAVR,4.44
23,RVRPLARKTSLANLISPVRNGAVR,2.6
24,RVRPLARQTSLANLISPVRNGAVR,2.73

row,Variant,protein stability index
1,RVRPLARFTSLANLISPVRNGAVR,2.28
2,RVRPLARMTSLANLISPVRNGAVR,2.79
3,RVRPLARDTSLANLISPVRNGAVR,3.63
4,RVRPLARITSLANLISPVRNGAVR,2.38
5,RVRPLARHTSLANLISPVRNGAVR,2.49
6,RVRPLARPTSLANLISPVRNGAVR,3.1
7,RVRPLARGTSLANLISPVRNGAVR,2.32
8,RVRPLARETSLANLISPVRNGAVR,3.54
9,RVRPLARRTSLANLISPVRNGAVR,2.92
10,RVRVLARVTSLANLISPVRNGAVR,2.02
11,RVRWLARVTSLANLISPVRNGAVR,2.71
12,RVRPLARVTWLANLISPVRNGAVR,1.99
13,RVRPLARVTFLANLISPVRNGAVR,1.46
14,RVRPLARVTPLANLISPVRNGAVR,3.01
15,RVRPLARVTCLANLISPVRNGAVR,1.62
16,RVRPLARVTQLANLISPVRNGAVR,3.42
17,RVRPLARVTELANLISPVRNGAVR,3
18,RVRPLARVTRLANLISPVRNGAVR,3.06
19,RVRPLARVTGLANLISPVRNGAVR,2.52
20,RVRPLARVTMLANLISPVRNGAVR,1.78
21,RVRPLARVTLLANLISPVRNGAVR,1.43
22,RVRPLARVTKLANLISPVRNGAVR,2.41
23,RVRPLARVTDLANLISPVRNGAVR,2.54
24,RVRPLARVTVLANLISPVRNGAVR,3.11

row,Variant,protein stability index
1,RVRPLARVTALANLISPVRNGAVR,2.51
2,RVRPLARVTYLANLISPVRNGAVR,2.04
3,RVRPLARVTILANLISPVRNGAVR,3.84
4,RVRPLARVTHLANLISPVRNGAVR,2.54
5,RVRPLARVTNLANLISPVRNGAVR,3.08
6,RVRPLARVPSLANLISPVRNGAVR,2.74
7,RVRPLARVYSLANLISPVRNGAVR,3.12
8,RVRPLARVMSLANLISPVRNGAVR,2.66
9,RVRPLARVCSLANLISPVRNGAVR,3.08
10,RVRPLARVDSLANLISPVRNGAVR,3.73
11,RVRPLARVGSLANLISPVRNGAVR,3.68
12,RVRPLARVNSLANLISPVRNGAVR,3.38
13,RVRPLARVLSLANLISPVRNGAVR,2.09
14,RVRPLARVASLANLISPVRNGAVR,2.81
15,RVRPLARVESLANLISPVRNGAVR,2.87
16,RVRPLARVQSLANLISPVRNGAVR,3.81
17,RVRPLARVWSLANLISPVRNGAVR,3.24
18,RVRPLARVFSLANLISPVRNGAVR,2.85
19,RVRPLARVVSLANLISPVRNGAVR,2.96
20,RVRPLARVKSLANLISPVRNGAVR,3.69
21,RVRPLARVISLANLISPVRNGAVR,1.84
22,RVRPLARVHSLANLISPVRNGAVR,2.75
23,RVRPLARVRSLANLISPVRNGAVR,2.76
24,RVRPLARVSSLANLISPVRNGAVR,3.45

row,Variant,protein stability index
1,RVRPLARVTSLANIISPVRNGAVR,3.03
2,RVRPLARVTSLANEISPVRNGAVR,3.16
3,RVRPLARVTSLANSISPVRNGAVR,3.15
4,RVRPLARVTSLANDISPVRNGAVR,4.39
5,RVRPLARVTSLANMISPVRNGAVR,2.61
6,RVRPLARVTSLANVISPVRNGAVR,2.72
7,RVRPLARVTSLANFISPVRNGAVR,2.65
8,RVRPLARVTSLANGISPVRNGAVR,3.24
9,RVRPLARVTSLANCISPVRNGAVR,1.66
10,RVRPLARVTSLANHISPVRNGAVR,3.63
11,RVRPLARVTSLANPISPVRNGAVR,3.76
12,RVRPLARVTSLANNISPVRNGAVR,3.84
13,RVRPLARVTSLANAISPVRNGAVR,3.15
14,RVRPLARVTSLANTISPVRNGAVR,3.67
15,RVRPLARVTSLANKISPVRNGAVR,3.35
16,RVRPLARVTSLANRISPVRNGAVR,3.34
17,RVRPLARVTSLANQISPVRNGAVR,3.02
18,RVRPLARVTSLAPLISPVRNGAVR,3.65
19,RVRPLARVTSLAILISPVRNGAVR,2.34
20,RVRPLARVTSLASLISPVRNGAVR,2.65
21,RVRPLARVTSLAFLISPVRNGAVR,2.6
22,RVRPLARVTSLARLISPVRNGAVR,3.33
23,RVRPLARVTSLAKLISPVRNGAVR,2.84
24,RVRPLARVTSLAVLISPVRNGAVR,2.33

row,Variant,protein stability index
1,RVRPLARVTSLAGLISPVRNGAVR,3.05
2,RVRPLARVTSLAMLISPVRNGAVR,1.92
3,RVRPLARVTSLAWLISPVRNGAVR,1.72
4,RVRPLARVTSLAALISPVRNGAVR,2.75
5,RVRPLARVTSLALLISPVRNGAVR,1.98
6,RVRPLARVTSLAELISPVRNGAVR,3.22
7,RVRPLARVTSLAYLISPVRNGAVR,1.38
8,RVRPLARVTSLACLISPVRNGAVR,1.93
9,RVRPLARVTSLAHLISPVRNGAVR,2.66
10,RVRPLARVTSLAQLISPVRNGAVR,2.52
11,RVRPLARVTSLATLISPVRNGAVR,3.11
12,RVRPLARVTSLADLISPVRNGAVR,3.43
13,RVRPLAMVTSLANLISPVRNGAVR,2.64
14,RVRPLALVTSLANLISPVRNGAVR,2.83
15,RVRPLATVTSLANLISPVRNGAVR,3.39
16,RVRPLANVTSLANLISPVRNGAVR,3.31
17,RVRPLAFVTSLANLISPVRNGAVR,1.85
18,RVRPLAGVTSLANLISPVRNGAVR,3.93
19,RVRPLAPVTSLANLISPVRNGAVR,3.81
20,RVRPLASVTSLANLISPVRNGAVR,2.78
21,RVRPLAEVTSLANLISPVRNGAVR,2.5
22,RVRPLACVTSLANLISPVRNGAVR,2.39
23,RVRPLAHVTSLANLISPVRNGAVR,2.71
24,RVRPLADVTSLANLISPVRNGAVR,2.84

row,Variant,protein stability index
1,RVRPLAQVTSLANLISPVRNGAVR,3.37
2,RVRPLAIVTSLANLISPVRNGAVR,2.43
3,RVRPLAKVTSLANLISPVRNGAVR,2.26
4,RVRPLAWVTSLANLISPVRNGAVR,2.79
5,RVRPLAVVTSLANLISPVRNGAVR,2.84
6,RVRPLAYVTSLANLISPVRNGAVR,2.77
7,RVRPLAAVTSLANLISPVRNGAVR,3.88
8,RVRPRARVTSLANLISPVRNGAVR,3.2
9,RVRPMARVTSLANLISPVRNGAVR,2.55
10,RVRPAARVTSLANLISPVRNGAVR,3.36
11,RVRPEARVTSLANLISPVRNGAVR,3.61
12,RVRPTARVTSLANLISPVRNGAVR,2.56
13,RVRPFARVTSLANLISPVRNGAVR,2.71
14,RVRPWARVTSLANLISPVRNGAVR,2.03
15,RVRPPARVTSLANLISPVRNGAVR,3.3
16,RVRPGARVTSLANLISPVRNGAVR,2.5
17,RVRPCARVTSLANLISPVRNGAVR,3.04
18,RVRPKARVTSLANLISPVRNGAVR,2.85
19,RVRPHARVTSLANLISPVRNGAVR,3.14
20,RVRPQARVTSLANLISPVRNGAVR,3.54
21,RVRPYARVTSLANLISPVRNGAVR,2.59
22,RVRPIARVTSLANLISPVRNGAVR,3.04
23,RVRPVARVTSLANLISPVRNGAVR,3.59
24,RVRPDARVTSLANLISPVRNGAVR,3.04

row,Variant,protein stability index
1,RVRPNARVTSLANLISPVRNGAVR,2.56
2,RVRPSARVTSLANLISPVRNGAVR,3.6
3,RVRPLARVTSLTNLISPVRNGAVR,3.89
4,RVRPLARVTSLRNLISPVRNGAVR,2.64
5,RVRPLARVTSLDNLISPVRNGAVR,3.93
6,RVRPLARVTSLYNLISPVRNGAVR,2.52
7,RVRPLARVTSLSNLISPVRNGAVR,3.49
8,RVRPLARVTSLFNLISPVRNGAVR,2.14
9,RVRPLARVTSLWNLISPVRNGAVR,1.83
10,RVRPLARVTSLCNLISPVRNGAVR,2.66
11,RVRPLARVTSLNNLISPVRNGAVR,2.79
12,RVRPLARVTSLLNLISPVRNGAVR,2.77
13,RVRPLARVTSLINLISPVRNGAVR,2.58
14,RVRPLARVTSLQNLISPVRNGAVR,3.71
15,RVRPLARVTSLVNLISPVRNGAVR,2.89
16,RVRPLARVTSLHNLISPVRNGAVR,3.27
17,RVRPLARVTSLENLISPVRNGAVR,3.91
18,RVRPLARVTSLPNLISPVRNGAVR,4.28
19,RVRPLARVTSLMNLISPVRNGAVR,2.42
20,RVRPLARVTSLKNLISPVRNGAVR,2.94
